Changes are numbered by the printed parent chain.

For one data set, the target named is T1, ALKBH3 L177A (Homo sapiens, UniProt Q96Q83 1-286, L177A).
T1 sequence: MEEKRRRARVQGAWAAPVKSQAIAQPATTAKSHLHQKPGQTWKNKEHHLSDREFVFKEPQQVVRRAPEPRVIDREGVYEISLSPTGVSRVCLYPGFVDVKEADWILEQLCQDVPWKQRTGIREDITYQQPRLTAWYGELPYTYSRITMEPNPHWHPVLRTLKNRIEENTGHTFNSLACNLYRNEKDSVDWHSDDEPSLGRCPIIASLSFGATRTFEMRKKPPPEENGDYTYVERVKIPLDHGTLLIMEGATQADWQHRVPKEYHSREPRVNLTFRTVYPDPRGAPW
The experiment in a line: intrinsic Trp fluorescence titration; apoprotein, 2 mM EDTA, no Fe(II)/2OG; Titration: 50 mM HEPES-KOH pH 7.8, 50 mM KCl, 10 mM MgCl2, 2 mM EDTA, 25 °C, 1 µM apoprotein; stopped-flow: with Fe(II) and 2OG, 0.5-4.0 µM DNA (buffer not in material). The settings on record: protein: recombinant; (Ni-chelating purification); single strand.

A further data set concerns the target T2, ALKBH3 H191A (Homo sapiens, UniProt Q96Q83 1-286, H191A).
T2 sequence: T1 sequence with A177L, H191A
The description is as above. The settings on record: protein: recombinant; (Ni-chelating purification); single strand.

Data set [1] has as its target T3, ALKBH3 wt (Homo sapiens, UniProt Q96Q83 1-286).
T3 sequence: T1 sequence with A177L
Described as above. The settings on record: protein: recombinant; tags: N-terminal His-tag (pET28a); single strand.

The target of a further data set is T4, ALKBH3 Y143A (Homo sapiens, UniProt Q96Q83 1-286, Y143A).
T4 sequence: T1 sequence with Y143A, A177L
The description is as above. The note with it: protein: recombinant; tags: N-terminal His-tag (pET28a); single strand.

In data set [2] the target is T5, ALKBH3 Y143F (Homo sapiens, UniProt Q96Q83 1-286, Y143F).
T5 sequence: T1 sequence with Y143F, A177L
Description: stopped-flow FRET kinetics (DynaFit); Fe(II), 2OG; enzyme-product complex; Titration: 50 mM HEPES-KOH pH 7.8, 50 mM KCl, 10 mM MgCl2, 2 mM EDTA, 25 °C, 1 µM apoprotein; stopped-flow: with Fe(II) and 2OG, 0.5-4.0 µM DNA (buffer not in material). The note with it: protein: recombinant; tags: N-terminal His-tag (pET28a); label: 5'-6-FAM, 3'-BHQ1; single strand.

Data set [3] concerns the target T3, ALKBH3 wt. Described as above. The note with it: protein: recombinant; tags: N-terminal His-tag (pET28a); label: 5'-6-FAM, 3'-BHQ1; single strand.
On the set-up of data set [4]: method as in PMID 35956910, doi:10.1134/S1068162019060190. The note with it: previous investigations; read-out: Kd for complexes with transitional metals and 2OG; cited from earlier work.
The subject of data set [5] is single-stranded DNA substrate m3C_FAM. Set-up: method as in PMID 35956910. The note with it: similar m3C-containing substrate, identical conditions; cited from earlier work.
On the set-up of data set [6]: method as in PMID 22443471. The settings on record: cited from earlier work.
Data set [7] concerns m3C_FRET substrate (m3C-containing DNA). Set-up: method as in PMID 31847292. The note with it: AlkB-ssDNA, pre-steady-state; cited from earlier work.
Data set [8] has as its target T5, ALKBH3 Y143F. The experiment in a line: stopped-flow FRET kinetics (DynaFit); Fe(II), 2OG; overall Ka = K1+K1K2+K1K2K3; Titration: 50 mM HEPES-KOH pH 7.8, 50 mM KCl, 10 mM MgCl2, 2 mM EDTA, 25 °C, 1 µM apoprotein; stopped-flow: with Fe(II) and 2OG, 0.5-4.0 µM DNA (buffer not in material). The note with it: protein: recombinant; tags: N-terminal His-tag (pET28a); label: 5'-6-FAM, 3'-BHQ1; single strand.

The target in data set [9] is T3, ALKBH3 wt. The data set is described as above. The settings on record: protein: recombinant; tags: N-terminal His-tag (pET28a); label: 5'-6-FAM, 3'-BHQ1; single strand.

For ACAGGATCCGGCATA (ssDNA, N3-methylcytosine at position 9) [m3C], the Kd in the data set with ALKBH3 L177A amounted to 5.7 ± 0.3 µM; with ALKBH3 H191A it was 4.3 ± 0.3 µM; in the data set with ALKBH3 wt [1], 2.8 ± 0.1 µM; with ALKBH3 Y143A, 6.3 ± 0.6 µM.
Regarding ACAGGATCCGGCATA (ssDNA, none (m3C demethylated to C)) [m3C_FRET repaired product], the Kd with ALKBH3 Y143F [2] worked out at 0.083 µM; with ALKBH3 wt [3], 0.72 µM.

B1: ALKBH2: human AlkB homolog 2 dioxygenase, literature comparison (protein, UniProt Q6NS38 1-261, looked up)
DNA oxidative demethylase …: MDRFLVKGAQGGLLRKQEEQEPTGEEPAVLGGDKESTRKRPRREAPGNGGHSAGPSWRHIRAEGLDCSYTVLFGKAEADEIFQELEKEVEYFTGALARVQVFGKWHSVPRKQATYGDAGLTYTFSGLTLSPKPWIPVLERIRDHVSGVTGQTFNFVLINRYKDGCDHIGEHRDDERELAPGSPIASVSFGACRDFVFRHKDSRGKSPSRRVAVVRLPLAHGSLLMMNHPTNTHWYHSLPVRKKVLAPRVNLTFRKILLTKK
B1: the Kd in [4] was 15 to 50 µM. In addition, the “observed rate constant for demethylation, kobs” value in data set [5] was 0.22 min⁻¹.

B2: AlkB: E. coli AlkB dioxygenase, literature comparison (protein, UniProt P05050 1-216, looked up)
Alpha-ketoglutarate-dependent …: MLDLFADAEPWQEPLAAGAVILRRFAFNAAEQLIRDINDVASQSPFRQMVTPGGYTMSVAMTNCGHLGWTTHRQGYLYSPIDPQTNKPWPAMPQSFHNLCQRAATAAGYPDFQPDACLINRYAPGAKLSLHQDKDEPDLRAPIVSVSLGLPAIFQFGGLKRNDPLKRLLLEHGDVVVWGGESRLFYHGIQPLKAGFHPLTIDCRYNLTFRQAGKKE
As for B2, the Kd in [4] was 15 to 50 µM. Also, in [6], the Tm was 54 °C. The “kr (hydroxylation of the substrate's methyl group)” value in [7] is 0.19 s⁻¹.
For ACAGGATCCGGCATA (ssDNA, N3-methylcytosine at position 9) [m3C_FRET], the Ka with ALKBH3 Y143F [8] came out at 1.4e+06 M⁻¹; with ALKBH3 wt [9] it was 1.9e+06 M⁻¹.

The values are drawn from PMC10816986, “The Role of Key Amino Acids of the Human Fe(II)/2OG-Dependent Dioxygenase ALKBH3 in Structural Dynamics and Repair Activity toward Methylated DNA” (International Journal of Molecular Sciences, 2024).
